Data published in article PMC6468305.

Biological target: S. epidermidis Csm3 (SeCsm3) in the Cas10–Csm effector complex (S. epidermidis RP62a)
Assay: cryo-EM structure

stoichiometry N: 5
Substance: S. epidermidis Csm3 (SeCsm3) in the Cas10–Csm effector complex (natural protein)
